In PMC12262686 (bioRxiv, 2025):
Changes are numbered by the printed parent chain. Names may count otherwise. “And” between values parts separate entries of the source, which are not always exact repeats. Equal entries are not always repeated.

B1: Speckle-type POZ protein (SPOP), full-length, wild type, O43791 1-374 (natural protein)
chain: MSRVPSPPPPAEMSSGPVAESWCYTQIKVVKFSYMWTINNFSFCREEMGEVIKSSTFSSGANDKLKWCLRVNPKGLDEESKDYLSLYLLLVSCPKSEVRAKFKFSILNAKGEETKAMESQRAYRFVQGKDWGFKKFIRRDFLLDEANGLLPDDKLTLFCEVSVVQDSVNISGQNTMNMVKVPECRLADELGGLWENSRFTDCCLCVAGQEFQAHKAILAARSPVFSAMFEHEMEESKKNRVEINDVEPEVFKEMMCFIYTGKAPNLDKMADDLLAAADKYALERLKVMCEDALCSNLSVENAAEILILADLHSADQLKTQAVDFINYHASDVLETSGWKSMVVSHPHLVAEAYRSLASAQCPFLGPPRKRLKQS
B2: SPOP E47Q (natural protein)
chain: B1 chain with E47Q
B3: SPOP R221C (natural protein)
chain: B1 chain with R221C
B4: SPOP R70L (natural protein)
chain: B1 chain with R70L
B5: SPOP S96R, full-length (natural protein)
chain: B1 chain with S96R
B6: SPOP K129E (natural protein)
chain: B1 chain with K129E
B7: SPOP M48I (natural protein)
chain: B1 chain with M48I
B8: SPOP G128S (natural protein)
chain: B1 chain with G128S
B9: SPOP G128D, full-length (natural protein)
chain: B1 chain with G128D
B10: SPOP K134N, full-length (natural protein)
chain: B1 chain with K134N

Key:
[1] = target: BRD3 peptide containing the main SPOP-binding motif of BRD3; test: fluorescence polarisation
[2] = target: T1, Speckle-type POZ protein (SPOP), full-length, wild type (human), O43791; test: cryo-EM structure; settings: remark: other sources report otherwise
T1 chain: B1 chain

negative-stain TEM = target: the molecule itself; test: negative-stain TEM

| Molecule | binding result (negative-stain TEM) | other results |
| --- | --- | --- |
| SPOP MATH domain K134N (from UniProt O43791 31-161) (domain or fragment) |  | fold weaker binding than the WT MATH domain [1]: 4 fold |
| SPOP K134N, full-length (from UniProt O43791 1-374) (natural protein) |  | fold weaker binding than full-length WT [1]: 11 fold |
| B1 |  | stoichiometry N [2]: 48 monomers and 56 monomers |
| B2 | binds |  |
| B3 | binds |  |
| B4 | binds |  |
| B5 | binds |  |
| B6 | binds |  |
| B7 | binds |  |
| B8 | binds |  |
| B9 | binds |  |
| B10 | binds |  |
